The chains are these.
B1: EGFP-Mps1^WT [Drosophila] / MBP-PP1-87B [Drosophila] (parent)
chain 1: MTTPVPRRTKDMMALGLDSDSEDDFNTPYRPRQAAAGERKQQPVASFQVQTRGKENEPHPLPINMLPRRVSELTMMDSDSDEEDIKSNHNLNCAILNDSFVLSPSQELTNSNSNITTRRTPSAAPLKQSDSNLSFLGRFNDMGINCSSQGSPVANSEKQVAKKTAPTLQAAPSATERRPLQETETPLRNELPSTSKTKPDADFITPQVRTIGSTLAGKSRSAVSNDFRAQKVLFQTPMTVSRAAPVASDSISFSLCDTITESPDIPEPPKKAEPPKSQHPSKKSLDHVFRESDKDNVPDKVDNVEPKELVSIPAVAVPPEQPSHKTSNILKIKNHEYTIDKKLGCGGSSSVFLARRSDSGNEFALKVVDLQADPQVVQGYLNETKLLAKLQGNVCVVALYDYQLVREESKLYMVMEKGDCDLNKILQSYTTNLPLYSLMNILYQMLQAVNYIHQHGVIHSDLKPANFLMVSGRLKLIDFGIASNIAVDSTSIIKFSQAGTFNYISPEALTDTSTGNSPMRRADQPKIKISTKSDVWSLGCILYLLLYQKTPFGHIRNVYAKMSAITTPGTSIEYPAIPPYYPIMLVHMAKNCLQLNPKKRPSCTELLQYPFHMIIPLQNLQIPSRTANSN
chain 2: MGDVMNIDSIISRLLEVRGARPGKNVQLSEGEIRGLCLKSREIFLSQPILLELEAPLKICGDIHGQYYDLLRLFEYGGFPPESNYLFLGDYVDRGKQSLETICLLLAYKIKYSENFFLLRGNHECASINRIYGFYDECKRRYSIKLWKTFTDCFNCLPVAAIVDEKIFCCHGGLSPDLTSMEQIRRIMRPTDVPDQGLLCDLLWSDPDKDTMGWGENDRGVSFTFGAEVVAKFLQKHEFDLICRAHQVVEDGYEFFAKRMLVTLFSAPNYCGEFDNAGAMMSVDDTLMCSFQILKPADKRKK

Variants of B1 are the subject of the test. In words: pull-down (MBP-PP1-87B beads, S2 cell lysates), western blot chemiluminescence quantification. Conditions: with MBP-PP1-87B [Drosophila]; at least two independent experiments; mean ± SD; parent: 1; read off a plot.
As for chain 1 K231A F234A, the ratio to parent amounted to 0.3.

The values above are taken from PMC5433843.
